According to PMC7307210, “Small sequence variations between two mammalian paralogs of the small GTPase SAR1 underlie functional differences in coat protein complex II assembly” (The Journal of Biological Chemistry, 2020):

Molecular target: the molecule itself
Experiment: liposome aggregation assay (nanoparticle tracking); 1 μg SAR1 with 100-nm liposomes and GMP-PNP in HKM buffer, 3 h at 37 °C; particle number and size by NanoSight; self-association on a membrane surface

Row | Protein | binding result
1 | SAR1B (natural protein, human SAR1B, full-length (198 residues), with the N-terminal amphipathic helix; also called Secretion-associated Ras-related GTPase 1 B; source: E. coli, purified as GST fusion (GSH-agarose), eluted by thrombin cleavage) not shown | binds
2 | SAR1A (natural protein, human SAR1A, full-length (198 residues), with the N-terminal amphipathic helix; also called Secretion-associated Ras-related GTPase 1 A; source: E. coli, purified as GST fusion (GSH-agarose), eluted by thrombin cleavage) not shown | binds
